# According to paper PMC3570547, “An Experimental Verification of the Predicted Effects of Promoter TATA-Box Polymorphisms Associated with Human Diseases on Interactions between the TATA Boxes and TATA-Binding Protein”:
# Biological target: TBP (TATA-binding protein, hTBP) (Homo sapiens, UniProt P20226 1-339)
# Experiment: EMSA; Fixed active TBP (typically 0.3 nM) titrated with 32P dsDNA to equilibrium; buffer, salt, pH and temperature not given in the material
# Conditions: protein: recombinant; label: 32P both strands; blunt
# Sequence of TBP (TATA-binding protein, hTBP) (P20226 whole entry): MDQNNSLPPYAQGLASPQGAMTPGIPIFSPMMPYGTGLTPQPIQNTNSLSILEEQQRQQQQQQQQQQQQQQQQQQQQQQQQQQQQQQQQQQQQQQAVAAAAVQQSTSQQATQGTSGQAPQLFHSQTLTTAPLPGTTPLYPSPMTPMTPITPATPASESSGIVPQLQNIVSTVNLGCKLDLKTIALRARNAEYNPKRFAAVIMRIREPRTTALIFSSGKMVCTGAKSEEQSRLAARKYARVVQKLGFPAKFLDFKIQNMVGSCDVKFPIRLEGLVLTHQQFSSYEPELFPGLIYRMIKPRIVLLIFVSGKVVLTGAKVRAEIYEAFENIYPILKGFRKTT
row,Binder,Kd [nM]
1,TPI TATA WT (dsDNA) DNA 1: CGCGGCGCTCTATATAAGTGGGCAGT DNA 2: ACTGCCCACTTATATAGAGCGCCGCG,4.8 ± 0.7
2,HBB -28A>C (dsDNA) DNA 1: CAGGGCTGGGCATACAAGTCAGGGCA DNA 2: TGCCCTGACTTGTATGCCCAGCCCTG,300 ± 20
3,globin pseudogene -70T>C (dsDNA) DNA 1: CTGCCACACCCACATTATCAGAAAAT DNA 2: ATTTTCTGATAATGTGGGTGTGGCAG,112 ± 6
4,NOS2A TATA WT (dsDNA) DNA 1: ATGGGGTGAGTATAAATACTTCTTGG DNA 2: CCAAGAAGTATTTATACTCACCCCAT,1.8 ± 0.2
5,SOD1 TATA WT (dsDNA) DNA 1: AGGTCTGGCCTATAAAGTAGTCGCGG DNA 2: CCGCGACTACTTTATAGGCCAGACCT,40 ± 8
6,HBD TATA WT (dsDNA) DNA 1: ACAGGACCAGCATAAAAGGCAGGGCA DNA 2: TGCCCTGCCTTTTATGCTGGTCCTGT,46 ± 5
7,HBB TATA WT (dsDNA) DNA 1: CAGGGCTGGGCATAAAAGTCAGGGCA DNA 2: TGCCCTGACTTTTATGCCCAGCCCTG,44 ± 3
8,IL1B -31C>T (dsDNA) DNA 1: TTTTGAAAGCTATAAAAACAGCGAGG DNA 2: CCTCGCTGTTTTTATAGCTTTCAAAA,7 ± 1
9,HBB -30T>A (dsDNA) DNA 1: CAGGGCTGGGCAAAAAAGTCAGGGCA DNA 2: TGCCCTGACTTTTTTGCCCAGCCCTG,116 ± 5
10,HBB -28A>G (dsDNA) DNA 1: CAGGGCTGGGCATAGAAGTCAGGGCA DNA 2: TGCCCTGACTTCTATGCCCAGCCCTG,87 ± 8
11,globin pseudogene TATA WT (dsDNA) DNA 1: CTGCCACACCCACATTATTAGAAAAT DNA 2: ATTTTCTAATAATGTGGGTGTGGCAG,152 ± 6
12,IL1B TATA WT (dsDNA) DNA 1: TTTTGAAAGCCATAAAAACAGCGAGG DNA 2: CCTCGCTGTTTTTATGGCTTTCAAAA,29 ± 4
13,CYP2A6 TATA WT (dsDNA) DNA 1: TTTCAGGCAGTATAAAGGCAAACCAC DNA 2: GTGGTTTGCCTTTATACTGCCTGAAA,17 ± 4
14,HBB -29A>G (dsDNA) DNA 1: CAGGGCTGGGCATGAAAGTCAGGGCA DNA 2: TGCCCTGACTTTCATGCCCAGCCCTG,390 ± 20
15,HBB -30T>C (dsDNA) DNA 1: CAGGGCTGGGCACAAAAGTCAGGGCA DNA 2: TGCCCTGACTTTTGTGCCCAGCCCTG,111 ± 8
16,MBL2 TATA WT (dsDNA) DNA 1: CATCTATTTCTATATAGCCTGCACCC DNA 2: GGGTGCAGGCTATATAGAAATAGATG,28 ± 4
17,FIX TATA WT (dsDNA) DNA 1: ACAGCTCAGCTTGTACTTTGGTACAA DNA 2: TTGTACCAAAGTACAAGCTGAGCTGT,510 ± 60
18,TF TATA WT (-21C) (dsDNA) DNA 1: GCCGGCCCTTTATAGCGCGCGGGGCA DNA 2: TGCCCCGCGCGCTATAAAGGGCCGGC,72 ± 9
19,HBB -27A>T (dsDNA) DNA 1: CAGGGCTGGGCATAATAGTCAGGGCA DNA 2: TGCCCTGACTATTATGCCCAGCCCTG,64 ± 3
20,CYP2A6 -48T>G (dsDNA) DNA 1: TTTCAGGCAGTAGAAAGGCAAACCAC DNA 2: GTGGTTTGCCTTTCTACTGCCTGAAA,80 ± 20
21,TPI -24T>G (dsDNA) DNA 1: CGCGGCGCTCTATAGAAGTGGGCAGT DNA 2: ACTGCCCACTTCTATAGAGCGCCGCG,150 ± 20
22,HBD -31A>G (dsDNA) DNA 1: ACAGGACCAGCGTAAAAGGCAGGGCA DNA 2: TGCCCTGCCTTTTACGCTGGTCCTGT,120 ± 10
23,SOD1 -27A>G (dsDNA) DNA 1: AGGTCTGGCCTGTAAAGTAGTCGCGG DNA 2: CCGCGACTACTTTACAGGCCAGACCT,170 ± 30
24,TF -21C>T (dsDNA) DNA 1: GCCGGCCCTTTATAGTGCGCGGGGCA DNA 2: TGCCCCGCGCACTATAAAGGGCCGGC,26 ± 3
25,NOS2A -21T>C (dsDNA) DNA 1: ATGGGGTGAGTATAAATACCTCTTGG DNA 2: CCAAGAGGTATTTATACTCACCCCAT,1.6 ± 0.3
26,HBB -31A>G (dsDNA) DNA 1: CAGGGCTGGGCGTAAAAGTCAGGGCA DNA 2: TGCCCTGACTTTTACGCCCAGCCCTG,99 ± 9
27,MBL2 -35T>C (dsDNA) DNA 1: CATCTATTTCTACATAGCCTGCACCC DNA 2: GGGTGCAGGCTATGTAGAAATAGATG,58 ± 9
